{
  "source": "patent US20100233154A1",
  "about": "“TARGETED BINDING AGENTS DIRECTED TO HEPARANASE AND USES THEREOF 463” (MedImmune Limited, priority 2008, published 2010)",
  "molecules": {"B1": {"name": "10E9.1: fully human anti-heparanase monoclonal antibody, G2κ; VH SEQ ID NO 2, VL SEQ ID NO 4; ATCC PTA-9489 (antibody, listed as Homo Sapiens, V domains shown)", "VH": "QVQLVQSGAEVKKPGASVKVSCKVSGYSLTELSIHWVRQAPGKGLEWMGGFDPEDGEIIFAQKFQGRVTLTEDISLDTAYMEVSSLRSEDTAVYYCATEGHDSGDYVGYYYYGLDVWGQGTTVTVSS", "VL": "DIQMTQSPSSLSASVGDRVTITCRASQDIRNFLAWYQQKPGKLPKLLIYAASTLQSGVPSRFSGSGSGTDFTLTISSLQPEDVASYYCQSHNSVPFTFGPGTKVDIR", "notes": "fully human anti-heparanase monoclonal antibody, G2κ; ATCC PTA-9489"}},
  "key": {"[1]": {"tested_on": "B16F10 AP3 murine melanoma cells", "assay": "FACS binding to cell surface heparanase, B16F10 AP3", "format": "cell-based", "details": "5 or 10 μg per ml, 2 hrs at 37° C.", "method": "Although heparanase is found as a secreted protein, a proportion of heparanase is found in conjunction with cell surface heparan sulfate. The ability of anti-human heparanase antibodies to bind to cell surface heparanase was tested in a FACS assay. HT1080 human fibrosarcoma cells, HCT116 human colorectal tumour cells and B16F10 AP3 murine melanoma cells were each seeded into 6-well plates and cultured for 48 hrs prior to the addition of anti-heparanase antibody 10E9.1 or control IgG2 antibody (Sigma Cat. No. 1504-1MG). Antibodies were added to the cells to a final concentration of 5 or 10 μg per ml and incubated with the cells for 2 hrs at 37° C. The cells were then washed with phosphate buffered saline (PBS) and harvested by incubation with trypsin. The cells were pelleted by centrifugation and resuspended in 0.5 ml PBS, 0.1% BSA containing 1/200 dilution of AlexaFluor 488 anti-human IgG. The cells were incubated for 1 hr at room temperature, washed with PBS/BSA, resuspended in PBS and analysed by FACS. […] The differences likely reflect a lower affinity for murine heparanase in addition to any differences in absolute heparanase expression."}, "[2]": {"molecular_target": "T1, cell surface heparanase of parental MCF7 or MCF7-Hpa1#19 cells (Homo sapiens, UniProt Q9Y251)", "T1 construct": "an expression construct comprising a full-length human heparanase cDNA under the control of a CMV promoter; expressed in transfected cells; host or cells: MCF7-Hpa1#19 (pCR3.1 vector, CMV promoter); parental MCF7 cells run alongside carry only low endogenous heparanase", "T1 sequence (Q9Y251 158-543)": "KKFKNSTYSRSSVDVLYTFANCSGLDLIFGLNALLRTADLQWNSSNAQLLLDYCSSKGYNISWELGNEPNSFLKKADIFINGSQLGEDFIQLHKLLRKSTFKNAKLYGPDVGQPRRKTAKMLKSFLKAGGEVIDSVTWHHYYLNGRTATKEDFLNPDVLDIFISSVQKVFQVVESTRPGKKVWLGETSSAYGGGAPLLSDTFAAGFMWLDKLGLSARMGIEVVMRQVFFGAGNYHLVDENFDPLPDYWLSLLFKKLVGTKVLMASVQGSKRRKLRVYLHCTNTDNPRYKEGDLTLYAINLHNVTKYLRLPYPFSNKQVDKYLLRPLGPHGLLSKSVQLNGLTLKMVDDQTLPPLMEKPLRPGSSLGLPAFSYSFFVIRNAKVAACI", "T1 sequence (Q9Y251 36-109)": "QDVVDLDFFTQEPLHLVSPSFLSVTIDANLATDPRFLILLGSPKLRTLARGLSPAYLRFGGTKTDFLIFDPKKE", "assay": "Cell surface heparanase activity assay", "format": "cell-based", "details": "5 or 25 μg per ml", "method": "Cell surface heparanase activity was measured by a modification of the methodology used in the recombinant enzyme screen (Example 4). Parental MCF7 or MCF7-Hpa1#19 cells were cultured in non-tissue culture (non-adherent) 96-well plates, seeded at 10^6 cells per well. After overnight incubation at 37° C. anti-heparanase 10E9.1 or control IgG2 (Sigma Cat. 1504-1MG) antibodies were added to the cells, to a final concentration of 0.04-25 μg per ml, and incubated for 1 hr at room temperature. Thereafter Biotin Heparan Sulfate Europium Criptate (CisBio Cat. No. 61BHSKAA) was added to the cells (final concentration 20 ng per ml) and incubated at 37° C. for 1 hr. Degradation of the heparan sulfate substrate was determined following the addition of Streptavidin-XL665 (final concentration 250 ng per ml; CisBio Cat. No. 611SAXLA) to the cells and fluorescence measured using excitation at 330 nm and emission at 670 nm. In the absence of anti-heparanase antibody or in the presence of control IgG2, the minimum fluorescence at 670 nm is the result of degradation of heparan sulfate (see FIG. 10)."}},
  "data": [
    {"molecule": "B1", "values": [
      {"measurement": "Binding to cell surface by FACS", "setting": "[1]", "value": "bind to the cell surface of B16F10 AP3 murine melanoma cells"},
      {"measurement": "Inhibition of cell surface heparanase activity", "setting": "[2]", "value": "complete inhibition of cell surface heparanase activity"}
    ]}
  ]
}
